According to patent US20220162314A1:

Biological target: Recombinant human CD8ab protein (extracellular domains of CD8a and CD8b with leucine zippers and tags) (human) (UniProt P01732)
Assay: ELISA: antigen coated on the plate, antibody titrated, anti-IgG (Fc)-HRP and TMB, A450

Recombinant human CD8ab protein (extracellular domains of CD8a and CD8b with leucine zippers and tags) (human), sequence (P01732 22-182, chain 1 of 2): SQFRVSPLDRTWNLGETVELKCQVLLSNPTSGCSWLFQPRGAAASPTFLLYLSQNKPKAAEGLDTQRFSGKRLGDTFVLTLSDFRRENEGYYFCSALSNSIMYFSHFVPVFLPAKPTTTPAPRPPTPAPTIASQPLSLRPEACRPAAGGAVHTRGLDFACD
Recombinant human CD8ab protein (extracellular domains of CD8a and CD8b with leucine zippers and tags) (human), sequence (P10966 22-170, chain 2 of 2, further chain): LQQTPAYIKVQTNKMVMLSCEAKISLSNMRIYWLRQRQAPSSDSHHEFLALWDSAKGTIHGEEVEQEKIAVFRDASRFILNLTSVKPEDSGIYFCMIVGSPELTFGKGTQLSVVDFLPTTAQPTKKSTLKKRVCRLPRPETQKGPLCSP

Substance: xhCD8a2 (clone SK1, Biolegend) (antibody)
- EC50 (read off the curve): 0.1 nM
